Laboratory results from patent US12514920B1, “Respiratory syncytial virus mRNA vaccine, and preparation method therefor and use thereof” (Hangzhou Tianlong Pharmaceutical Co., Ltd., priority 2024, dated 2026).
Changes are numbered by the printed parent chain.

B1: YK-RSV-052 (protein)
chain: QNITEEFYQSTCSAVSKGYLGALRTGWYTSVITIELSNIKENKCNGTDAKVKLIKQELDKYKNAVTDLQLLMQSTPATGSGCAIASGVAVSKVLHLEGEVNKIKSALLSTNKAVVSLSNGVSVLTFKVLDLKNYIDKQLLPILNKQSCSIPNIETVIEFQQKNNRLLEITREFSVNAGVTTPVSTYMLTNSELLSLINDMPITNDQKKLMSNNVQIVRQQSYSIMSIIKEEVLAYVVQLPCYGVIDTPCWKLHTSPLCTTNTKEGSNICLTRTDRGWYCDNAGSVSFFPQAETCKVQSNRVFCDTMNSRTLPSEVNLCNVDIFNPKYDCKIMTSKTDVSSSVITSLGAIVSCYGKTKCTASNKNRGIIKTFSNGCDYVSNKGVDTVSVGNTLYYVNKQEGQSLYVKGEPIINFYDPLVFPSDEFDASISQVNEKINQSLAFIRKSDELLHNVNAGKSTTNIMITTIIIVIIVILLSLIAVGLLLY
B2: YK-RSV-002 (protein)
chain: B1 chain with T29H, C82S, A85C, S91C, L143V, S226C, C241L, Y394C, D422S
B3: YK-RSV-059 (protein)
chain: B1 chain with C82S, C241L, N261C, G407C
B4: YK-RSV-058 (protein)
chain: B1 chain with C82S, C241L, S266C, G407C
B5: YK-RSV-046 (protein)
chain: QNITEEFYQSTCSAVSKGYLGALRTGWYTSVITIELSNIKENKCNGTDAKVKLIKQELDKYKNAVTDLQLLMQSTPATGSGSFCGFLLGVGSAIASGVAVSKVLHLEGEVNKIKSALLSTNKAVVSLSNGVSVLTFKVLDLKNYIDKQLLPILNKQSCSIPNIETVIEFQQKNNRLLEITREFSVNAGVTTPVSTYMLTNSELLSLINDMPITNDQKKLMSNNVQIVRQQSYSIMSIIKEEVLAYVVQLPLYGVIDTPCWKLHTSPLCTTNTKEGSNICLTRCDRGWYCDNAGSVSFFPQAETCKVQSNRVFCDTMNSRTLPSEVNLCNVDIFNPKYDCKIMTSKTDVSSSVITSLGAIVSCYGKTKCTASNKNRGIIKTFSNGCDYVSNKGVDTVSVGNTLYYVNKQEGQSLYVKGEPIINFYDPLVFPSDEFDASISQVNEKINQSLAFIRKSDELLHNVNAGKSTTNIMITTIIIVIIVILLSLIAVGLLLY
B6: YK-RSV-051 (protein)
chain: B5 chain with C84L, F86C, C283T, T315C

What follows are molecules tested on RSV pre-F antibody (3C12) (assay: not given). Conditions: high osmotic pressure 3000 mM, room temperature, 60 min; ELISA binding to 3C12.
Type: physicochemical
How it was run: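 RSV F mRNA-vaccine mutants stress-treated: 4° C. for one week, 50° C. for 60 min, low or high osmotic pressure at room temperature for 60 min, acid or base at room temperature for 60 min. Binding to 3C12 (epitope Φ) then measured by ELISA against pre-F trimer standard, HRP anti-human IgG, OD 450/630 nm.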
With B1 the “Stress resistance parameter, Osmotic pressure (mM) 3000” value was 0.30 ± 0.06. With B2 the “Stress resistance parameter, Osmotic pressure (mM) 3000” value was 0.44 ± 0.13. B3 was tested, and the “Stress resistance parameter, Osmotic pressure (mM) 3000” value was 0.44 ± 0.03. With B4 the “Stress resistance parameter, Osmotic pressure (mM) 3000” value was 0.50 ± 0.05. With B5 the “Stress resistance parameter, Osmotic pressure (mM) 3000” value was 0.41 ± 0.02. With B6 the “Stress resistance parameter, Osmotic pressure (mM) 3000” value was 0.44 ± 0.00.

Same assay, conditions: incubation at 50° C. for 60 min; ELISA binding to 3C12
For B1, the “Stress resistance parameter, Temperature (° C.) 50” value was 0.69 ± 0.09. For B2, the “Stress resistance parameter, Temperature (° C.) 50” value was 0.46 ± 0.06. For B3, the “Stress resistance parameter, Temperature (° C.) 50” value was 0.74 ± 0.07. In the case of B4, the “Stress resistance parameter, Temperature (° C.) 50” value is reported as 0.73 ± 0.09. With B5 the “Stress resistance parameter, Temperature (° C.) 50” value was 0.63 ± 0.03. For B6, the “Stress resistance parameter, Temperature (° C.) 50” value was 0.60 ± 0.08.

Same assay, conditions: low osmotic pressure 10 mM, room temperature, 60 min; ELISA binding to 3C12
In the case of B1, the “Stress resistance parameter, Osmotic pressure (mM) 10” value (“Stress resistance parameter … (mM) 10” below) is reported as 0.88 ± 0.21. For B2, the “Stress resistance parameter … (mM) 10” value was 0.84 ± 0.14. With B3 the “Stress resistance parameter … (mM) 10” value was 0.49 ± 0.02. B4 was tested, and the “Stress resistance parameter … (mM) 10” value was 0.60 ± 0.04. For B5, the “Stress resistance parameter … (mM) 10” value was 0.46 ± 0.14. For B6, the “Stress resistance parameter … (mM) 10” value was 0.51 ± 0.13.

Same assay, conditions: pH 3.5, room temperature, 60 min; ELISA binding to 3C12
B1 was tested, and the “Stress resistance parameter, pH 3.5” value was 0.80 ± 0.04. For B2, the “Stress resistance parameter, pH 3.5” value was 0.65 ± 0.08. With B3 the “Stress resistance parameter, pH 3.5” value was 0.73 ± 0.03. In the case of B4, the “Stress resistance parameter, pH 3.5” value is reported as 0.72 ± 0.03. With B5 the “Stress resistance parameter, pH 3.5” value was 0.83 ± 0.04. In the case of B6, the “Stress resistance parameter, pH 3.5” value is reported as 0.69 ± 0.14.

Same assay, conditions: pH 10, room temperature, 60 min; ELISA binding to 3C12
With B1 the “Stress resistance parameter, pH 10” value was 1.22 ± 0.14. In the case of B2, the “Stress resistance parameter, pH 10” value is reported as 0.97 ± 0.14. For B3, the “Stress resistance parameter, pH 10” value was 0.82 ± 0.09. For B4, the “Stress resistance parameter, pH 10” value was 0.81 ± 0.05. B5 was tested, and the “Stress resistance parameter, pH 10” value was 1.03 ± 0.03. For B6, the “Stress resistance parameter, pH 10” value was 1.00 ± 0.17.

Same assay, conditions: storage at 4° C. for one week; ELISA binding to 3C12
B1 was tested, and the “Stress resistance parameter, Temperature (° C.) 4” value was 0.42 ± 0.10. With B2 the “Stress resistance parameter, Temperature (° C.) 4” value was 0.61 ± 0.11. B3 was tested, and the “Stress resistance parameter, Temperature (° C.) 4” value was 0.52 ± 0.10. With B4 the “Stress resistance parameter, Temperature (° C.) 4” value was 0.36 ± 0.07. In the case of B5, the “Stress resistance parameter, Temperature (° C.) 4” value is reported as 0.24 ± 0.07. In the case of B6, the “Stress resistance parameter, Temperature (° C.) 4” value is reported as 0.33 ± 0.05.

What follows are molecules tested on RSV pre-F antibody (3C12) (assay: Binding of epitope Φ of RSV F antigen mutants by flow cytometry). Conditions: flow cytometry; epitope Φ, antibody 3C12.
How it was run: (§1)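 293T cells were transfected with mRNA-LNP (300 ng mRNA) encoding the RSV F mutants and harvested after 16 h. Cells were stained with fluorescent 3C12 (pre-F-specific epitope Φ) or 11A9 (epitope II, pre-F and post-F) for 2 h at 4 °C in the dark, then washed and read by flow cytometry on 1×10^4 cells per measurement.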
B1 was tested, and the “RSV pre-F antibody (3C12) Epitope Φ (%) binding rate” value was 89.4%. B2 was tested, and the “RSV pre-F antibody (3C12) Epitope Φ (%) binding rate” value was 88.0%. In the case of B3, the “RSV pre-F antibody (3C12) Epitope Φ (%) binding rate” value is reported as 83.1%. With B4 the “RSV pre-F antibody (3C12) Epitope Φ (%) binding rate” value was 81.2%. In the case of B5, the “RSV pre-F antibody (3C12) Epitope Φ (%) binding rate” value is reported as 84.0%. With B6 the “RSV pre-F antibody (3C12) Epitope Φ (%) binding rate” value was 76.8%.

Same assay, conditions: ratio of epitope Φ (3C12) to epitope II (11A9) binding rate
For B1, the “Φ/II (%)” value was 95.4%. In the case of B2, the “Φ/II (%)” value is reported as 94.1%. B3 was tested, and the “Φ/II (%)” value was 92.5%. B4 was tested, and the “Φ/II (%)” value was 91.5%. B5 was tested, and the “Φ/II (%)” value was 93.5%. With B6 the “Φ/II (%)” value was 88.2%.

The molecules below were run on RSV F antibody (11A9) (assay: Binding of epitope II of RSV F antigen mutants by flow cytometry). Conditions: epitope II, antibody 11A9.
How it was run: as §1
B1 was tested, and the “RSV F antibody (11A9) Epitope II (%) binding rate” value (from here on “RSV F antibody … (%) binding rate”) was 93.7%. With B2 the “RSV F antibody … (%) binding rate” value was 93.5%. For B3, the “RSV F antibody … (%) binding rate” value was 89.8%. B4 was tested, and the “RSV F antibody … (%) binding rate” value was 88.7%. With B5 the “RSV F antibody … (%) binding rate” value was 89.8%. In the case of B6, the “RSV F antibody … (%) binding rate” value is reported as 87.1%.
